In article PMC8199271:

Molecular target: T1, wild-type MBP–CHIP (C-terminus of HSC70-interacting protein, encoded by STUB1) (human), Q9UNE7
T1 chain: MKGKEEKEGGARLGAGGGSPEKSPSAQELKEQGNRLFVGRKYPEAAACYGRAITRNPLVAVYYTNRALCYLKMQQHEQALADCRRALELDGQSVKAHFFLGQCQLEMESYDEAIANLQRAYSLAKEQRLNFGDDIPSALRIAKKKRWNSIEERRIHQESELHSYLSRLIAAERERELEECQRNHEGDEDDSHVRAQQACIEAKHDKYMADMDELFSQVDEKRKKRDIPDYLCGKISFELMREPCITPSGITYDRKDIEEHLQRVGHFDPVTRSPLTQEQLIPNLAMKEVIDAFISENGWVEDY
Experiment: native gel or EMSA; 5 µg MBP–CHIP in Native Sample Buffer on a 10% gel, 4 °C, 3 h at 140 V, Tris/glycine (25 mM Tris, 192 mM glycine) pH 8.3; Coomassie staining, bands analysed by Fiji (ImageJ); self-association (monomer, dimer, higher-order oligomers)
Settings: remark: other sources report otherwise

B1: wild-type MBP–CHIP (C-terminus of HSC70-interacting protein, encoded by STUB1), Q9UNE7-1 1-303 (natural protein)
chain: T1 chain
B1 was tested, and the stoichiometry N was 2.
